# Measured values published in patent US9611303B2, “Modified biotin-binding protein” (Japan Tobacco Inc., priority 2009, dated 2017).
# How the values were obtained:
# [1] = Purification of LATM2 with 2-iminobiotin-agarose; type: binding; conditions: for Note (Iminobiotin-agarose): FT = column flow-through fraction; for Recovery rate (%): Iminobiotin-agarose, binding at pH 12, elution with 50 mM NH4OAC (pH 4)
# Experimental: LATM2 was purified through a column charged with 2-iminobiotin-agarose (manufactured by Sigma-Aldrich Corp.) in accordance with the method by Hofmann, et al., (1980). IPTG was added to 25 mL of a culture solution of E. coli transformed with each LATM2 in a final concentration of 1 mM to induce expression. The E. coli cells were collected by centrifugation, suspended in 1.5 mL of 50 mM CAPS (pH 12) containing 50 mM NaCl, and then sonicated. To the supernatant of the disrupted cells, 500 μL of 2-iminobiotin-agarose was added, which was then packed in a column. The column was sufficiently washed with 50 mM CAPS (pH 12) containing 500 mM NaCl, and elution was then performed with 50 mM NH4OAC (pH 4).
# (§1) The recovery rate in Table 2 was calculated by dividing the amount of LATM2 protein after purification by the amount of LATM2 protein before purification and was expressed by percent by multiplying the quotient by 100. The degree of purification was the ratio of the amount of LATM2 protein to the total amount of proteins in the purified fraction and was expressed by percent by multiplying the ratio by 100. The recovery rates and the degrees of purification in biotin-agarose were the results after binding at pH 7 and elution with an excess amount of biotin.
# [2] = Purification of LATM2 with biotin-agarose; type: binding
# Experimental: Purification with biotin-agarose (manufactured by Sigma-Aldrich Corp.) was performed by the following procedure. After induced expression of 25 mL of a culture solution of E. coli for each LATM2, the E. coli cells were suspended in 1.5 mL of a 100 mM potassium phosphate buffer (pH 7.0), and then sonicated. To the supernatant of the disrupted cells. 400 μL of biotin-agarose was added, which was followed by upside-down mixing for 1 hr. […]
# In TM2 S36A-T78A-D116A, the E. coli cells were suspended in 1.5 mL of 50 mM CAPS (pH 12) containing 50 mM NaCl, and then sonicated. To the disrupted cells, 400 μL of biotin-agarose was added, which was followed by upside-down mixing for 1 hr. The column was sufficiently washed with 50 mM CAPS (pH 12) containing 500 mM NaCl, and elution was then performed with 1 mL of PBS (pH 7.4) containing 10 mM biotin.
# In TM2 S36A-D116A, the E. coli cells were suspended in 1.5 mL of a 100 mM potassium phosphate buffer (pH 4.0), and then sonicated. To the pupernatant of the disrupted cells, 400 μL of biotin-agarose was added. Washing was performed with a 100 mM potassium phosphate buffer (pH 4) containing 500 mM NaCl, and elution was performed with 1 mL of PBS (pH 7) containing 10 mM biotin. Biotin binding to LATM2 that has been eluted with an excess amount of biotin was removed by dialysis with a 20 mM potassium phosphate buffer overnight.
# as §1
# [3] = Subunit association by FPLC on Sephacryl S-100HR; type: physicochemical; conditions: for Structure (identified by FPLC): Sephacryl S-100HR, 50 mM potassium phosphate, 500 mM NaCl; for Sephacryl (mL), elution peak position: tetramer 44 to 47 mL, dimer 51 to 54 mL, monomer 63 to 66 mL
# Experimental: In order to analyze the subunit association conditions of LATM2, the molecular weight of each LATM2s was measured by FPLC. Sephacryl S-100HR (manufactured by GE Healthcare) was used as a column, a Gel Filtration Calibration Kit LMW (manufactured by GE Healthcare) was used as molecular weight markers, and 50 mM potassium phosphate containing 500 mM NaCl was used as a buffer.
# The positions of the peaks of eluted tetramer were defined to be 44 to 47 mL after injection of WT-TM2 as a control. The peak of an eluted monomer appeared at around 63 to 66 mL and the peak of an eluted dimer appeared at around 51 to 54 mL, from result of loading the molecular weight markers.
# Proteinase K = assay: Protease resistance of LATM2 (SDS-PAGE); conditions: 5 μM Proteinase K, 30° C., 15 min, presence or absence of biotin
# Experimental: Throughout the specification, “having protease resistance” refers to that a protein is not enzymatically decomposed or not substantially decomposed by protease treatment. The protease treatment is performed by, for example, proteinase K treatment at 30° C. for 15 min. The term “not enzymatically decomposed” refers to that bands of a tetramer, dimer, and/or monomer of the protein can be clearly detected by SDS-PAGE after enzyme treatment, as in wild-type TM2. That is, a protein not having protease resistance is decomposed into small molecules by protease treatment, and bands of the tetramer, dimer, and monomer are not detected by SDS-PAGE after the protease treatment. […] Accordingly, bands of the tetramer and/or the dimer or monomer generated by dissociation of the tetramer are detected by SDS-PAGE. […] of each of the LATM2s (TM2 S36A, TM2 […], TM2 […], TM2 […], TM2 […], TM2 S36A-[…], TM2 […], and […]) purified by biotin-agarose was subjected to a reaction in 50 mM Tris-HCl (pH 8.0) containing 5 μM Proteinase K and 5 mM CaCl2 at 30° C. for 15 min. […] Then, an SDS buffer was added to each reaction solution, followed by heat treatment at 95° C. for 10 min to terminate the reaction. The resulting sample was subjected to SDS-PAGE, followed by CBB staining.
# [4] = Biotin-agarose, binding at pH 7, recovery with 10 mM biotin
binding to 2-iminobiotin-agarose [1],binding to biotin-agarose [2],"recovery rate by binding at pH 12, extraction with acetic acid ([2]; Biotin-agarose)",Molecule,Note (Iminobiotin-agarose) [1],Recovery rate (%) [1] [%],"Recover rate (%) [2, 4] [%]",Structure (identified by FPLC) [3],"Sephacryl (mL), elution peak position [3] [mL]",decomposition by Proteinase K (Proteinase K),elution from biotin-agarose with an excess amount of biotin [2],Structure (identified by FPLC) ([3]; listed as S36A),Structure (identified by FPLC) ([3]; listed as D116A),"Note (Biotin-agarose) ([2]; binding at pH 7, recovery with 10 mM biotin, FT = flow-through)","recover rate by elution with acetic acid ([2]; Biotin-agarose, elution with acetic acid)"
did not bind,,,"TM2 T78A-D116A: TM2 with 78th threonine and 116th aspartic acid replaced with alanine; SEQ ID NO: 22 (protein, Synthetic TM2 T78A-D116A) MSDVQSSLTGTWYNELNSKMELTANKDGTLTGKYLSKVGDVYVPYPLSGRYNLQPPAGQGVALGWAVSWENSKIHSAATWSGQFFSESSPVILTQWLLSSSTARGDVWESTLVGNASFTKTAPTEQQIAHAQLHCRAPRLK",To FT,0,95,Tetramer,46.37,hardly decomposed,,,,,
,efficiently adsorbs to biotin-agarose,,"TM2 S36A: TM2 in which the 36th serine was replaced with alanine; SEQ ID NO: 6 (protein, Synthetic TM2 S36A) MSDVQSSLTGTWYNELNSKMELTANKDGTLTGKYLAKVGDVYVPYPLSGRYNLQPPAGQGVALGWAVSWENSKIHSATTWSGQFFSESSPVILTQWLLSSSTARGDVWESTLVGNDSFTKTAPTEQQIAHAQLHCRAPRLK",,95,95,tetramer,46.17,hardly decomposed,eluted by addition of an excess amount of biotin,Tetramer,,,
did not bind,,,TM2 L97T-V113R: TM2 with 97th leucine replaced with threonine and 113th valine with arginine (protein) MSDVQSSLTGTWYNELNSKMELTANKDGTLTGKYLSKVGDVYVPYPLSGRYNLQPPAGQGVALGWAVSWENSKIHSATTWSGQFFSESSPVILTQWTLSSSTARGDVWESTLRGNDSFTKTAPTEQQIAHAQLHCRAPRLK,To FT,0,70,Tetramer,45.42,,,,,,
,,,"TM2 D116A: TM2 in which the 116th aspartic acid was replaced with alanine; SEQ ID NO: 12 (protein, Synthetic TM2 D116A) MSDVQSSLTGTWYNELNSKMELTANKDGTLTGKYLSKVGDVYVPYPLSGRYNLQPPAGQGVALGWAVSWENSKIHSATTWSGQFFSESSPVILTQWLLSSSTARGDVWESTLVGNASFTKTAPTEQQIAHAQLHCRAPRLK",,95,95,tetramer,46.22,hardly decomposed,,,Tetramer,,
,,,"TM2P46T-T78A-D116A: TM2 with P46T, T78A and D116A replacements; SEQ ID NO: 18 (protein, Synthetic TM2 P46T-T78A-D116A) MSDVQSSLTGTWYNELNSKMELTANKDGTLTGKYLSKVGDVYVPYTLSGRYNLQPPAGQGVALGWAVSWENSKIHSAATWSGQFFSESSPVILTQWLLSSSTARGDVWESTLVGNASFTKTAPTEQQIAHAQLHCRAPRLK",,95,95,Tetramer,48.24,hardly decomposed,,,,,
,,recovery rate: 70%,"TM2P46T-T78A: TM2 with 46th proline replaced with threonine and 78th threonine with alanine; SEQ ID NO: 14 (protein, Synthetic TM2 P46T-T78A) MSDVQSSLTGTWYNELNSKMELTANKDGTLTGKYLSKVGDVYVPYTLSGRYNLQPPAGQGVALGWAVSWENSKIHSAATWSGQFFSESSPVILTQWLLSSSTARGDVWESTLVGNDSFTKTAPTEQQIAHAQLHCRAPRLK",,95,5,Tetramer,46.05,hardly decomposed,,,,note eluted,
,,,"TM2P46T-D116A: TM2 with 46th proline replaced with threonine and 116th aspartic acid with alanine; SEQ ID NO: 16 (protein, Synthetic TM2 P46T-D116A) MSDVQSSLTGTWYNELNSKMELTANKDGTLTGKYLSKVGDVYVPYTLSGRYNLQPPAGQGVALGWAVSWENSKIHSATTWSGQFFSESSPVILTQWLLSSSTARGDVWESTLVGNASFTKTAPTEQQIAHAQLHCRAPRLK",,95,95,Tetramer,46.23,hardly decomposed,,,,,
,,,"TM2 W80K: TM2 in which the 80th tryptophan was replaced with lysine; amino acid sequence SEQ ID NO: 4 (protein, Synthetic TM2 W80K) MSDVQSSLTGTWYNELNSKMELTANKDGTLTGKYLSKVGDVYVPYPLSGRYNLQPPAGQGVALGWAVSWENSKIHSATTKSGQFFSESSPVILTQWLLSSSTARGDVWESTLVGNDSFTKTAPTEQQIAHAQLHCRAPRLK",,95,50,Tetramer,44.4,hardly decomposed,,,,,recover rate: 95%
